Laboratory results taken from the Human Domainome abundance scans (Beltran et al. 2025).
± gives the uncertainty stated by the source.

B1: Tumor protein p73, residues 487 to 549; numbered along this chain, O15350 (parent)
chain: YHADPSLVSFLTGLGCPNCIEYFTSQGLQSIYHLQNLTIEDLGALKIPEQYRMTIWRGLQDLK
B2: Homeobox protein SIX3, residues 212 to 262; numbered along this chain, O95343 (parent)
chain: CFKERTRSLLREWYLQDPYPNPSKKRELAQATGLTPTQVGNWFKNRRQRDR

Variants of: B1
Assay: abundance fitness (aPCA) (normalised: wild type 0, dead -1); higher = more abundant; growth selection in yeast, the domain comes from the species named
Details: Homo sapiens

Going from YHADPSLVSFLTGLGCPNCIEYFTSQGLQSIYHLQNLTIEDLGALKIPEQYRMTIWRGLQDLC to YHADPSLVSFLTGLGCPNCIEYFTSQGLQSIYHLQNLTIEDLGALKIPEQYRMTIWRGLQDLE, the abundance fitness rises from -0.239 ± 0.088 to 0.103 ± 0.063.

YHADPSLVSFLTGLGCPNCIEYFTSQGLQSIYHLQNLTIEDLGALKIPEQYRMTIWRGLQDLG and YHADPSLVSFLTGLGCPNCIEYFTSQGLQSIYHLQNLTIEDLGALKIPEQYRMTIWRGLQDLH are within error of each other in abundance fitness: -0.002 ± 0.075 for the first, -0.34 ± 0.37 for the second.

YHADPSLVSFLTGLGCPNCIEYFTSQGLQSIYHLQNLTIEDLGALKIPEQYRMTIWRGLQDLL and YHADPSLVSFLTGLGCPNCIEYFTSQGLQSIYHLQNLTIEDLGALKIPEQYRMTIWRGLQDLN are within error of each other in abundance fitness: -0.261 ± 0.087 for the first, -0.245 ± 0.3 for the second.

YHADPSLVSFLTGLGCPNCIEYFTSQGLQSIYHLQNLTIEDLGALKIPEQYRMTIWRGLQDLP and YHADPSLVSFLTGLGCPNCIEYFTSQGLQSIYHLQNLTIEDLGALKIPEQYRMTIWRGLQDLQ are within error of each other in abundance fitness: -0.394 ± 0.38 for the first, 0.074 ± 0.28 for the second.

YHADPSLVSFLTGLGCPNCIEYFTSQGLQSIYHLQNLTIEDLGALKIPEQYRMTIWRGLQDLR and YHADPSLVSFLTGLGCPNCIEYFTSQGLQSIYHLQNLTIEDLGALKIPEQYRMTIWRGLQDLS are within error of each other in abundance fitness: -0.159 ± 0.14 for the first, 0 ± 0.058 for the second.

YHADPSLVSFLTGLGCPNCIEYFTSQGLQSIYHLQNLTIEDLGALKIPEQYRMTIWRGLQDLT and YHADPSLVSFLTGLGCPNCIEYFTSQGLQSIYHLQNLTIEDLGALKIPEQYRMTIWRGLQDLW are within error of each other in abundance fitness: 0.172 ± 0.14 for the first, -0.044 ± 0.25 for the second.

Variants of: B2
Assay: as above
Details: Homo sapiens

Going from EFKERTRSLLREWYLQDPYPNPSKKRELAQATGLTPTQVGNWFKNRRQRDR to FFKERTRSLLREWYLQDPYPNPSKKRELAQATGLTPTQVGNWFKNRRQRDR, the abundance fitness rises from -0.342 ± 0.49 to 0.499 ± 0.16.

Compared with GFKERTRSLLREWYLQDPYPNPSKKRELAQATGLTPTQVGNWFKNRRQRDR, IFKERTRSLLREWYLQDPYPNPSKKRELAQATGLTPTQVGNWFKNRRQRDR is higher in abundance fitness: -0.359 ± 0.14 for the first, 0.874 ± 0.28 for the second.

SFKERTRSLLREWYLQDPYPNPSKKRELAQATGLTPTQVGNWFKNRRQRDR and VFKERTRSLLREWYLQDPYPNPSKKRELAQATGLTPTQVGNWFKNRRQRDR are within error of each other in abundance fitness: -0.121 ± 0.18 for the first, -0.402 ± 0.3 for the second.

WFKERTRSLLREWYLQDPYPNPSKKRELAQATGLTPTQVGNWFKNRRQRDR and CAKERTRSLLREWYLQDPYPNPSKKRELAQATGLTPTQVGNWFKNRRQRDR are within error of each other in abundance fitness: -0.251 ± 0.16 for the first, -0.183 ± 0.06 for the second.

First: CCKERTRSLLREWYLQDPYPNPSKKRELAQATGLTPTQVGNWFKNRRQRDR
Second: CDKERTRSLLREWYLQDPYPNPSKKRELAQATGLTPTQVGNWFKNRRQRDR
The abundance fitness of the first is lower: -0.315 ± 0.092 for the first, 0.361 ± 0.076 for the second.

CEKERTRSLLREWYLQDPYPNPSKKRELAQATGLTPTQVGNWFKNRRQRDR and CGKERTRSLLREWYLQDPYPNPSKKRELAQATGLTPTQVGNWFKNRRQRDR are within error of each other in abundance fitness: 0.037 ± 0.062 for the first, -0.04 ± 0.045 for the second.

CHKERTRSLLREWYLQDPYPNPSKKRELAQATGLTPTQVGNWFKNRRQRDR and CIKERTRSLLREWYLQDPYPNPSKKRELAQATGLTPTQVGNWFKNRRQRDR are within error of each other in abundance fitness: -0.083 ± 0.052 for the first, -0.047 ± 0.1 for the second.

CKKERTRSLLREWYLQDPYPNPSKKRELAQATGLTPTQVGNWFKNRRQRDR and CLKERTRSLLREWYLQDPYPNPSKKRELAQATGLTPTQVGNWFKNRRQRDR are within error of each other in abundance fitness: 0.009 ± 0.1 for the first, -0.022 ± 0.067 for the second.

CMKERTRSLLREWYLQDPYPNPSKKRELAQATGLTPTQVGNWFKNRRQRDR and CNKERTRSLLREWYLQDPYPNPSKKRELAQATGLTPTQVGNWFKNRRQRDR are within error of each other in abundance fitness: 0.253 ± 0.089 for the first, 0.149 ± 0.11 for the second.

CPKERTRSLLREWYLQDPYPNPSKKRELAQATGLTPTQVGNWFKNRRQRDR and CQKERTRSLLREWYLQDPYPNPSKKRELAQATGLTPTQVGNWFKNRRQRDR are within error of each other in abundance fitness: -0.258 ± 0.044 for the first, -0.178 ± 0.095 for the second.

First: CRKERTRSLLREWYLQDPYPNPSKKRELAQATGLTPTQVGNWFKNRRQRDR
Second: CTKERTRSLLREWYLQDPYPNPSKKRELAQATGLTPTQVGNWFKNRRQRDR
The abundance fitness of the first is lower: -0.324 ± 0.048 for the first, -0.106 ± 0.074 for the second.

Compared with CWKERTRSLLREWYLQDPYPNPSKKRELAQATGLTPTQVGNWFKNRRQRDR, CYKERTRSLLREWYLQDPYPNPSKKRELAQATGLTPTQVGNWFKNRRQRDR is higher in abundance fitness: -0.538 ± 0.1 for the first, 0.079 ± 0.093 for the second.

Compared with CFAERTRSLLREWYLQDPYPNPSKKRELAQATGLTPTQVGNWFKNRRQRDR, CFCERTRSLLREWYLQDPYPNPSKKRELAQATGLTPTQVGNWFKNRRQRDR is higher in abundance fitness: -0.3 ± 0.037 for the first, 0.158 ± 0.12 for the second.

CFDERTRSLLREWYLQDPYPNPSKKRELAQATGLTPTQVGNWFKNRRQRDR and CFEERTRSLLREWYLQDPYPNPSKKRELAQATGLTPTQVGNWFKNRRQRDR are within error of each other in abundance fitness: -0.037 ± 0.068 for the first, 0.074 ± 0.062 for the second.

CFHERTRSLLREWYLQDPYPNPSKKRELAQATGLTPTQVGNWFKNRRQRDR and CFIERTRSLLREWYLQDPYPNPSKKRELAQATGLTPTQVGNWFKNRRQRDR are within error of each other in abundance fitness: -0.72 ± 0.4 for the first, -0.362 ± 0.18 for the second.

Going from CFMERTRSLLREWYLQDPYPNPSKKRELAQATGLTPTQVGNWFKNRRQRDR to CFNERTRSLLREWYLQDPYPNPSKKRELAQATGLTPTQVGNWFKNRRQRDR, the abundance fitness rises from -0.624 ± 0.2 to 0.165 ± 0.069.

CFPERTRSLLREWYLQDPYPNPSKKRELAQATGLTPTQVGNWFKNRRQRDR and CFQERTRSLLREWYLQDPYPNPSKKRELAQATGLTPTQVGNWFKNRRQRDR are within error of each other in abundance fitness: -0.39 ± 0.071 for the first, -0.216 ± 0.2 for the second.

Compared with CFRERTRSLLREWYLQDPYPNPSKKRELAQATGLTPTQVGNWFKNRRQRDR, CFSERTRSLLREWYLQDPYPNPSKKRELAQATGLTPTQVGNWFKNRRQRDR is higher in abundance fitness: -0.275 ± 0.047 for the first, -0.106 ± 0.1 for the second.

Compared with CFTERTRSLLREWYLQDPYPNPSKKRELAQATGLTPTQVGNWFKNRRQRDR, CFVERTRSLLREWYLQDPYPNPSKKRELAQATGLTPTQVGNWFKNRRQRDR is lower in abundance fitness: -0.134 ± 0.11 for the first, -0.655 ± 0.12 for the second.
